From publication PMC3922912, “Structural basis of stereospecific reduction by quinuclidinone reductase” (AMB Express, 2014)

Tests used:
[1] = target: T1, NADPH-dependent 3-quinuclidinone reductase (RrQR) (Rhodotorula mucilaginosa, UniProt B9ZZZ6); test: X-ray crystal structure, […] Å; format: binding; conditions: crystals grown at 278 K, CHES pH 10.0, PEG8000; one NADPH per protomer
T1 construct: gene rqr; homotetramer; crystal model residues 7-272, residues 1-6 disordered

[2] = tested on: O=C1CN2CCC1CC2; test: purified protein; format: biochemical, Rhodotorula mucilaginosa; conditions: 350 μM NADPH, 200 mM potassium phosphate pH 7.0, 37°C, substrate as HCl salt
[3] = target: NADPH-dependent 3-quinuclidinone reductase (RrQR) from Rhodotorula rubra (Rhodotorula rubra); test: crystal structure; RrQR in complex with NADPH; crystals grown at 278 K, sitting-drop vapor diffusion, 100 mM CHES (pH 10.0), 30% PEG8000, 3% sucrose; four protomers in the asymmetric unit; 2.2 Å

Molecule: NC(=O)C1=CN([C@@H]2O[C@H](COP(=O)(O)OP(=O)(O)OC[C@H]3O[C@@H](n4cnc5c(N)ncnc54)[C@H](OP(=O)(O)O)[C@@H]3O)[C@@H](O)[C@H]2O)C=CC1 [NADPH]
- X-ray crystal structure, 2.2 Å [1]: A clear electron density for NADPH is observed in each protomer

Molecule: NADPH-dependent 3-quinuclidinone reductase (RrQR) (Rhodotorula mucilaginosa; N173A)
- Km [2]: 100 mM
- Vmax [2]: 11.6 µmol/min/mg
- kcat [2]: 5.62 s⁻¹

Molecule: NADPH-dependent 3-quinuclidinone reductase (RrQR) from Rhodotorula rubra (enzyme)
- stoichiometry N [3]: 4
